This is an account of results in PMC3068626, “Cholesterol utilization in mycobacteria is controlled by two TetR-type transcriptional regulators: kstR and kstR2”.

Data set [1] addresses T1, KstR2Mtb (Mycobacterium tuberculosis, UniProt P9WMB9 1-200). Description: EMSA; 20 mM Tris/HCl pH 8.0, 10 mM MgCl2, 75 mM NaCl, 20 min at 37 C; […]. The settings on record: protein: recombinant; tags: none in EMSA (His6 tag removed with TEV protease); chain copies: 2; label: 3' DIG-11-ddUTP (end-labelled). (Mobility shift assays separate free from complexed probe on a gel.)

Data set [2] has as its target T1, KstR2Mtb. Description: EMSA; 1 uM DNA, 6 uM protein, 10 mM MgCl2; 20 mM Tris/HCl pH 8.0, 10 mM MgCl2, 75 mM NaCl, 20 min at 37 C; […]. The settings on record: protein: recombinant; tags: none in EMSA (His6 tag removed with TEV protease); chain copies: 2; label: none (ethidium bromide stain); blunt.

T1 sequence (P9WMB9 whole entry): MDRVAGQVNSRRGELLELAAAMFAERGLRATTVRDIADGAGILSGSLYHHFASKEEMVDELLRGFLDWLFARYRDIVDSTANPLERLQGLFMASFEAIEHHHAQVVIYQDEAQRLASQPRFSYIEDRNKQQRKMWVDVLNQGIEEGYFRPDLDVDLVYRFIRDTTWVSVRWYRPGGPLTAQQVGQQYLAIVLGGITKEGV

B1: Rv3557c/Rv3558 probe, DIG-labelled (dsDNA)
DNA 1: GCTGGCCGAGCAAGCGCTTGGTTGATAGTC
DNA 2: GACTATCAACCAAGCGCTTGCTCGGCCAGC
With B1, in data set [1], the binding result is listed as “binds”.

B2: Rv3560c/Rv3561 probe (dsDNA)
DNA 1: GCTAACCTACCAAGCACTTGCTTTGTTAGG
DNA 2: CCTAACAAAGCAAGTGCTTGGTAGGTTAGC
In the case of B2, in data set [2], the binding result was “binds”.

B3: Rv3549c/Rv3550 probe (dsDNA)
DNA 1: GCGTACCAAGCAAGTGCTTGCTTAGGTAGC
DNA 2: GCTACCTAAGCAAGCACTTGCTTGGTACGC
Regarding B3, in data set [2], the binding result is “binds”.

B4: Rv3557c/Rv3558 probe (dsDNA)
DNA 1: GCTGGCCGAGCAAGCGCTTGGTTGATAGTC
DNA 2: GACTATCAACCAAGCGCTTGCTCGGCCAGC
As to B4, the binding result in data set [2] is reported as “binds”.
